Measured values from PMC12714728 (npj Viruses, 2025).
Positions of bridges follow the written chain, without caps; N, C: chain ends. No end group written: not given here.

B1: cyclic peptide CP13 (peptide)
peptide: CYRDPLGVAGEMC
modifications: not fully specified; cysteine pairing not given here
B2: cyclic peptide CP14 (peptide)
peptide: LYEDPLGVAGGMG
modifications: head-to-tail lactam cyclized (no template)
notes: source: synthetic peptide (manual solid phase Fmoc chemistry, RP-HPLC)
B3: cyclic peptide CP11 (peptide)
peptide: CYRDPLGVAGGMC
modifications: disulfide 1-13
notes: source: synthetic peptide (manual solid phase Fmoc chemistry, iodine oxidation, RP-HPLC)
B4: cyclic peptide CP8 (peptide)
peptide: CLYRDPLGVAGGMGC
modifications: not fully specified (bridges); cysteine pairing not given here
notes: as for B3

The binders below were run against H1/Bri HA, A/Brisbane/59/07 (H1N1) hemagglutinin, C-terminally biotinylated, for the CCI assay (influenza A virus A/Brisbane/59/07 …, C-terminal biotin) (assay: cell-based or functional assay).

First: B1
Second: B2
The “conformational change inhibition assay (CCI) IC50” value of the first is 32-fold higher: 39.4 µM for the first, 1.24 µM for the second.

First: B3
Second: B4
The “conformational change inhibition assay (CCI) IC50” value of the first is 16-fold higher: 8.52 µM for the first, 0.54 µM for the second.
